Experimental data: PMC12748766, “Structural basis for human chondroitin sulfate chain polymerization” (Nature Communications, 2025)

T1: CHSY3-CHPF complex (Homo sapiens, UniProt Q70JA7)
T1 construct: secreted luminal part of both chains (TM helix removed), HEK Freestyle 293-F; N-terminal RPTP sigma signal, SUMO, His6 cut with 3C; C-terminal Avi (CHSY3), 3C site and twin-Strep (CHPF); heterodimer, expected 165 kDa; with Chondroitin sulfate synthase 2
T1 sequence (Q70JA7 157-882): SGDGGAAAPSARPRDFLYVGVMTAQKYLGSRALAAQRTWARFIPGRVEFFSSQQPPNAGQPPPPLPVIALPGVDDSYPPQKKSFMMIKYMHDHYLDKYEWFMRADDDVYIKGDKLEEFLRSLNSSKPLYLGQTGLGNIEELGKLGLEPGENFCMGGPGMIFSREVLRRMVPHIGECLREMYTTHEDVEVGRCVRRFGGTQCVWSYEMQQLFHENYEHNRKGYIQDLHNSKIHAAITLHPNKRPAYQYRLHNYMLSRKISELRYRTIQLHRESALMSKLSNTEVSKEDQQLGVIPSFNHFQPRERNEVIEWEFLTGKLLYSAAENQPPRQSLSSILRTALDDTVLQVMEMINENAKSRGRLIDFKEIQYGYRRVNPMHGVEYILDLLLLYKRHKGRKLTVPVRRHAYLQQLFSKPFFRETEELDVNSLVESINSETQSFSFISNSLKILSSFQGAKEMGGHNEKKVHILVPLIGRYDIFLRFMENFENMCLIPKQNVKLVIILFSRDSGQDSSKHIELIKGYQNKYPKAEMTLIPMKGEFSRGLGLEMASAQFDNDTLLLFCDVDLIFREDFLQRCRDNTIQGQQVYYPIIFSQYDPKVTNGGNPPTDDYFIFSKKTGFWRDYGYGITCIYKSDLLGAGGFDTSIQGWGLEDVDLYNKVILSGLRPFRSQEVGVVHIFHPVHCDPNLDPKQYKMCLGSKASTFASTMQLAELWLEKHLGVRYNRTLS
T1 sequence (Q8IZ52 81-775 partner): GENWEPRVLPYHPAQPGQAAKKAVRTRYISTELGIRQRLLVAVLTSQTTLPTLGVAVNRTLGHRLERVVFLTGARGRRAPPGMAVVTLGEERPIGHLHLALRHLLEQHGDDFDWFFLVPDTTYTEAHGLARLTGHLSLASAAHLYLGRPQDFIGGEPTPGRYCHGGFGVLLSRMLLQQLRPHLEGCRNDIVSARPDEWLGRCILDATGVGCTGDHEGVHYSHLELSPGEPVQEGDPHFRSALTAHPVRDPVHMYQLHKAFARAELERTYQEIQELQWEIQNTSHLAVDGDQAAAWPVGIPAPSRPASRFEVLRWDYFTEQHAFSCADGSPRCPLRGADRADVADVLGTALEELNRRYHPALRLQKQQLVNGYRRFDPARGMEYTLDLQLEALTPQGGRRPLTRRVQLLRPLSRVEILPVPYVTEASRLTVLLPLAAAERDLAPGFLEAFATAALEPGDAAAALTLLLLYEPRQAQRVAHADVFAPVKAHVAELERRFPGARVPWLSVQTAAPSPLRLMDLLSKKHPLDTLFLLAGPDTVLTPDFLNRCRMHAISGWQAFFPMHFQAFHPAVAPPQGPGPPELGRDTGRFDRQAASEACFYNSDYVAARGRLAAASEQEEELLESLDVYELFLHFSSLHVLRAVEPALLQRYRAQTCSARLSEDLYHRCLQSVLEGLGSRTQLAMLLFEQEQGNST

T2: Chondroitin Sulfate Synthase-1 (CHSY1), secreted N-terminally truncated construct aa68-aa802 (human, UniProt Q86X52 68-802)
T2 construct: CHSY1, human, UniProt Q86X52, residues 68-802 (membrane-spanning helix removed); Construct in pHR-CMV-TetO2 with an N-terminal chicken RPTP sigma signal peptide, SUMO, 6x His and a 3C site; no cleavage site before the C-terminal Avi tag; source: Freestyle 293-F cells, co-transfected, secreted; purified from the supernatant (HisTrap, 3C protease, second HisTrap); not shown: SUMO, N-terminal, …
T2 sequence (looked up): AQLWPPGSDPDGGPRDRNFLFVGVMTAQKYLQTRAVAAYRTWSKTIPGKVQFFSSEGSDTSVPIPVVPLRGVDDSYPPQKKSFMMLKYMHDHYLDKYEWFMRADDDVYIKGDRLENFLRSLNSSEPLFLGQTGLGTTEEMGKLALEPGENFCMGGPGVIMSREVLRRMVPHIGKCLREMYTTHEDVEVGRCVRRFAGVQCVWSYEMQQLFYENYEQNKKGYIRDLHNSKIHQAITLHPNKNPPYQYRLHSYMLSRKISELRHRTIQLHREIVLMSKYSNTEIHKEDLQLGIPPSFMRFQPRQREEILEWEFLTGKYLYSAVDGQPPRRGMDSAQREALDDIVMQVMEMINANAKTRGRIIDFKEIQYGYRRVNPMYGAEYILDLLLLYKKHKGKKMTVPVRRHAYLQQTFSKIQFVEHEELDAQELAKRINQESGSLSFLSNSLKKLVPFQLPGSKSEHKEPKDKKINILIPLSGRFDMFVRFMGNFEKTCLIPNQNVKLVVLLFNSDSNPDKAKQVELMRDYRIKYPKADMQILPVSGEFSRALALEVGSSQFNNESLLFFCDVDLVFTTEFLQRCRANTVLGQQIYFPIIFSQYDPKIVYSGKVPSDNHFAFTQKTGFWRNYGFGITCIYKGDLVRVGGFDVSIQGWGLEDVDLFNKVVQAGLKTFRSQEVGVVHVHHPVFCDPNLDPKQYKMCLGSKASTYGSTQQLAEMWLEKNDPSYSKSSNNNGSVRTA

T3: Chondroitin Sulfate Synthase-3 (CHSY3), secreted N-terminally truncated construct aa157-aa882 (human, UniProt Q70JA7 157-882)
T3 construct: CHSY3, human, UniProt Q70JA7, residues 157-882 (membrane-spanning helix removed); Construct in pHR-CMV-TetO2 with an N-terminal chicken RPTP sigma signal peptide, SUMO, 6x His and a 3C site; no cleavage site before the C-terminal Avi tag; source: Freestyle 293-F cells, co-transfected, secreted; purified from the supernatant (HisTrap, 3C protease, second HisTrap); not shown: SUMO, N-terminal, …
T3 sequence (looked up): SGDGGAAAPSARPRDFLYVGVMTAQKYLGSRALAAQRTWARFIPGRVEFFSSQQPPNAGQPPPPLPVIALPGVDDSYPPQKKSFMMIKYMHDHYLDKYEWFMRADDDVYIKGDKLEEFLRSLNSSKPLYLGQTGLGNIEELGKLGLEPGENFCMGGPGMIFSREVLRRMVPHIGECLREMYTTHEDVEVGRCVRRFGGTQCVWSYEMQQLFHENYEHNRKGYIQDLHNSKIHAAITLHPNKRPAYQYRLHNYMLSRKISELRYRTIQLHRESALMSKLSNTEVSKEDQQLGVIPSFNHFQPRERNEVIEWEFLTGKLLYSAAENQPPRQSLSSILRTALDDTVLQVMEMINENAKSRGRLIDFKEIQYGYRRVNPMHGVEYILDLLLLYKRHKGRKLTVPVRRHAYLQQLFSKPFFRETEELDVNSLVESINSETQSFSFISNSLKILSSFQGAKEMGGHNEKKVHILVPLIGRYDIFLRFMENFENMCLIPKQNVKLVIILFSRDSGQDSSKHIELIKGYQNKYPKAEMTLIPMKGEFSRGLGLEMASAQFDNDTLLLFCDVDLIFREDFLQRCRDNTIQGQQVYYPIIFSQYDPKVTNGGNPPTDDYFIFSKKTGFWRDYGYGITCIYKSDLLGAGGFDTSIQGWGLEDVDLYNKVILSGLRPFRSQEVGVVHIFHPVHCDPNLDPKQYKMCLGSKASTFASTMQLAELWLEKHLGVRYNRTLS


What was measured:
[1] = target: T1, CHSY3-CHPF complex; assay: cryo-EM structure, […] A; assay type: binding; conditions: 10 mM UDP, Mn2+, pH 6.5; bound in N-terminal GT31 (GlcA-T) active site of CHSY3
[2] = target: T2, Chondroitin Sulfate Synthase-1 (CHSY1), …; assay: mass photometry; Refeyn OneMP; purified complexes diluted in 20 mM MES pH 6.5, 150 mM NaCl to around 25 nM; conditions: both partners purified
[3] = target: T3, Chondroitin Sulfate Synthase-3 (CHSY3), …; assay: as above; conditions: both partners purified

binding result [2]	binding result [3]	Molecule	cryo-EM structure, 3.0 A [1]
–	–	O=c1ccn([C@@H]2O[C@H](COP(=O)(O)OP(=O)(O)O)[C@@H](O)[C@H]2O)c(=O)[nH]1 [UDP]	We identified one UDP molecule bound in the CHSY3 GlcA-T active site.
binds	binds	Chondroitin Polymerization Factor-2 (CHPF2), secreted N-terminally truncated construct aa57-aa772 (domain or fragment, human, UniProt Q9P2E5 57-772, looked up, CHPF2, human, UniProt Q9P2E5, residues 57-772 (membrane-spanning helix removed); Construct in pHR-CMV-TetO2 with an N-terminal chicken RPTP sigma signal peptide, SUMO, 6x His and a 3C site; a second 3C site stands before the C-terminal twin streptavidin tag; also called CSGlcA-T; source: Freestyle 293-F cells, co-transfected, secreted; purified from the supernatant (HisTrap, 3C protease, second …)) SRARLDQSDEDFKPRIVPYYRDPNKPYKKVLRTRYIQTELGSRERLLVAVLTSRATLSTLAVAVNRTVAHHFPRLLYFTGQRGARAPAGMQVVSHGDERPAWLMSETLRHLHTHFGADYDWFFIMQDDTYVQAPRLAALAGHLSINQDLYLGRAEEFIGAGEQARYCHGGFGYLLSRSLLLRLRPHLDGCRGDILSARPDEWLGRCLIDSLGVGCVSQHQGQQYRSFELAKNRDPEKEGSSAFLSAFAVHPVSEGTLMYRLHKRFSALELERAYSEIEQLQAQIRNLTVLTPEGEAGLSWPVGLPAPFTPHSRFEVLGWDYFTEQHTFSCADGAPKCPLQGASRADVGDALETALEQLNRRYQPRLRFQKQRLLNGYRRFDPARGMEYTLDLLLECVTQRGHRRALARRVSLLRPLSRVEILPMPYVTEATRVQLVLPLLVAEAAAAPAFLEAFAANVLEPREHALLTLLLVYGPREGGRGAPDPFLGVKAAAAELERRYPGTRLAWLAVRAEAPSQVRLMDVVSKKHPVDTLFFLTTVWTRPGPEVLNRCRMNAISGWQAFFPVHFQEFNPALSPQRSPPGPPGAGPDPPSPPGADPSRGAPIGGRFDRQASAEGCFYNADYLAARARLAGELAGQEEEEALEGLEVMDVFLRFSGLHLFRAVEPGLVQKFSLRDCSPRLSEELYHRCRLSNLEGLGGRAQLAMALFEQEQANST	–
